From the supplement of paper PMC9876800

System: peptide library, one residue held at a place counted from the S/T acceptor
Test: relative phosphorylation of the sub-library (ratio to the mean residue at this position); higher = residue favoured
Procedure, shortened: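 Human or orthologue kinase constructs, purified and recombinant, were incubated under kinase-specific conditions in 384-well plates with biotinylated degenerate peptide sub-libraries. Each sub-library fixed one residue at one position around a central Ser/Thr. Incubations lasted 90 min with peptides at 50 μM and 50 μM ATP spiked with γ-32P-ATP, after which spots on streptavidin membranes were phosphorimaged and quantified by densitometry. Relative sub-library phosphorylation is a ratio to the mean residue at that position.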

Chain of EEF2K, construct: Full length, human (O00418 whole entry, looked up): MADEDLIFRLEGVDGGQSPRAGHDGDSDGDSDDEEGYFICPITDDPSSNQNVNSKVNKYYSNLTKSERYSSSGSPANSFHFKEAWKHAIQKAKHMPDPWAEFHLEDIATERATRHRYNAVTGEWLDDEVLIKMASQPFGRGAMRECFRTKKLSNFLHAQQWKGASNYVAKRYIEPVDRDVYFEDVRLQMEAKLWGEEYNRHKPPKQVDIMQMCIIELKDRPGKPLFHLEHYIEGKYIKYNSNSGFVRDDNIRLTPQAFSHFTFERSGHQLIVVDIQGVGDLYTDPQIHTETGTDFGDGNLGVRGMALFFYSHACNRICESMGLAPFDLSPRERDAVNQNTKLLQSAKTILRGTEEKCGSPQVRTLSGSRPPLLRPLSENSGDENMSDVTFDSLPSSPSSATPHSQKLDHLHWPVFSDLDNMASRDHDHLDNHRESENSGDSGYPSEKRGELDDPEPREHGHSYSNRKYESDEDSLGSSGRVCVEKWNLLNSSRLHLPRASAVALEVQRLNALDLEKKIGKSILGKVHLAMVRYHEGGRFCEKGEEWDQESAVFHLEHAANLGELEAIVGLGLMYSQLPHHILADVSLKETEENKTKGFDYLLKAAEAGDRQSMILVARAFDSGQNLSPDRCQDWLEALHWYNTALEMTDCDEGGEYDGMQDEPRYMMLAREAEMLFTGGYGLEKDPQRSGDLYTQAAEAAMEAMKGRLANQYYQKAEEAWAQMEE
Chain of TBK1, construct: Full length, human (Q9UHD2 whole entry, looked up): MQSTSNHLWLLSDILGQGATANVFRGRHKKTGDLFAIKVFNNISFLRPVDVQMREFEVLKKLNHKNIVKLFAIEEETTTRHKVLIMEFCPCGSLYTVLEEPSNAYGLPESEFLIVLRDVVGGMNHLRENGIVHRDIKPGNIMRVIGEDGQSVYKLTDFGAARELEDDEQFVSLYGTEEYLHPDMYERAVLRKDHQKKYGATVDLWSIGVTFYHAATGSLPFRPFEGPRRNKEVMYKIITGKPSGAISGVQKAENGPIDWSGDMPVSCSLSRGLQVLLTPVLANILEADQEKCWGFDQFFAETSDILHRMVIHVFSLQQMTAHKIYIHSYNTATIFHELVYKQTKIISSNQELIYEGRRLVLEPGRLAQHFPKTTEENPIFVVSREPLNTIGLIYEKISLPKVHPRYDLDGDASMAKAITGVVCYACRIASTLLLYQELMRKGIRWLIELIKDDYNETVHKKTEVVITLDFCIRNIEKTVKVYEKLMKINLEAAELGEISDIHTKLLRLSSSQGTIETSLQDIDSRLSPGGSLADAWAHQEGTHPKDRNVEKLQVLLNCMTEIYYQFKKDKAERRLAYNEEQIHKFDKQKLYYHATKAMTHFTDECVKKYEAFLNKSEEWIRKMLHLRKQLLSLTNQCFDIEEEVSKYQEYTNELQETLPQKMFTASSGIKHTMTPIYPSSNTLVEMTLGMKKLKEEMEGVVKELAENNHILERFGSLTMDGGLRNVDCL
Chain of MAP3K21, construct: aa98-451, human (Q5TCX8 98-451, looked up): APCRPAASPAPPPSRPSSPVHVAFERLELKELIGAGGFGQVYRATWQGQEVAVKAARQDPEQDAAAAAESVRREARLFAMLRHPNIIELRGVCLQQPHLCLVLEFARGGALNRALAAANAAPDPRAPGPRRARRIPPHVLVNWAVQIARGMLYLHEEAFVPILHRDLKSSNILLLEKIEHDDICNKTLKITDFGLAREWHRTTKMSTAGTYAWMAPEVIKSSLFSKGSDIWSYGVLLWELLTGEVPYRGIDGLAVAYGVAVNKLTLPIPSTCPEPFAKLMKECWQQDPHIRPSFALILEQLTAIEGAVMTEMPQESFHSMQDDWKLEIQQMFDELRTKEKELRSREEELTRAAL

MAP3K21, construct: aa98-451, human (from UniProt Q5TCX8)
relative phosphorylation
Conditions | at +1 | at +2 | at +3 | at +4 | at -1 | at -2 | at -3 | at -4 | at -5
A fixed | 0.66 | 0.456 | 0.721 | 0.893 | 0.777 | 0.912 | 0.933 | 1.05 | 1.07
D fixed | 0.244 | 0.223 | 0.462 | 0.682 | 1.23 | 1.55 | 1.72 | 1.84 | 1.8
E fixed | 0.435 | 0.323 | 0.508 | 0.676 | 0.821 | 1.43 | 1.97 | 1.81 | 1.63
F fixed | 1.52 | 0.38 | 1.08 | 0.633 | 0.875 | 1.02 | 0.789 | 0.676 | 0.82
G fixed | 0.585 | 0.397 | 0.796 | 1.11 | 0.386 | 0.992 | 1.17 | 1.37 | 1.24
H fixed | 1.21 | 2.1 | 1.61 | 1.16 | 1.46 | 1.19 | 1.19 | 1.12 | 1.06
I fixed | 1.28 | 0.502 | 0.71 | 0.622 | 0.534 | 0.537 | 0.406 | 0.49 | 0.485
K fixed | 1.25 | 2.23 | 1.52 | 2.18 | 1.03 | 0.356 | 0.702 | 0.83 | 1.03
L fixed | 0.726 | 0.507 | 1.14 | 0.58 | 0.711 | 0.699 | 0.545 | 0.513 | 0.609
M fixed | 1.61 | 0.467 | 0.881 | 0.722 | 0.914 | 1.04 | 0.806 | 0.818 | 0.654
N fixed | 0.62 | 0.624 | 0.829 | 0.871 | 1.43 | 1.18 | 1.22 | 1.16 | 1.01
P fixed | 0.185 | 0.18 | 0.398 | 1.46 | 0.679 | 1.85 | 1.19 | 1.19 | 1.08
Q fixed | 1.16 | 0.88 | 0.849 | 1.16 | 1.02 | 1.05 | 1.16 | 0.968 | 0.99
R fixed | 1.92 | 3.75 | 1.87 | 2.13 | 1.4 | 0.593 | 0.817 | 0.902 | 1.13
V fixed | 1.98 | 0.426 | 0.81 | 0.753 | 0.875 | 0.52 | 0.496 | 0.595 | 0.682
W fixed | 0.707 | 1.91 | 1.41 | 0.702 | 1.19 | 0.909 | 0.872 | 0.886 | 0.825
Y fixed | 0.907 | 1.65 | 1.41 | 0.661 | 1.67 | 1.18 | 1.02 | 0.779 | 0.886
pThr fixed | 1.13 | 0.418 | 0.664 | 0.851 | 0.803 | 1.09 | 1.84 | 1.28 | 1.35
pTyr fixed | 0.604 | 0.427 | 0.692 | 0.519 | 1.83 | 1.01 | 1.17 | 1.11 | 1.22

EEF2K, construct: Full length, human (from UniProt O00418)
relative phosphorylation
Conditions | at +1 | at +2 | at +3 | at +4 | at -1 | at -2 | at -3 | at -4 | at -5
A fixed | 1.46 | 0.748 | 0.733 | 0.852 | 1.3 | 1.1 | 0.971 | 1.01 | 1.08
D fixed | 0.421 | 0.233 | 0.609 | 0.742 | 1.24 | 1.24 | 1.14 | 0.912 | 0.748
E fixed | 1.5 | 0.236 | 0.618 | 0.644 | 1.25 | 1.91 | 1.13 | 0.794 | 0.718
F fixed | 0.935 | 1.16 | 0.583 | 0.718 | 0.881 | 0.935 | 0.971 | 1.61 | 1.17
G fixed | 0.447 | 0.773 | 0.679 | 1.08 | 1.14 | 1.13 | 1.32 | 1.18 | 1.07
H fixed | 0.864 | 1.31 | 0.766 | 1.28 | 1.08 | 0.929 | 0.971 | 0.878 | 0.873
I fixed | 1.4 | 0.647 | 0.417 | 0.651 | 0.598 | 0.739 | 0.945 | 0.932 | 1.02
K fixed | 0.992 | 2.31 | 3.25 | 2.03 | 0.978 | 0.631 | 0.975 | 1.11 | 1.24
L fixed | 1.09 | 0.565 | 0.477 | 0.643 | 0.93 | 0.751 | 0.975 | 1.04 | 0.892
M fixed | 1.13 | 0.909 | 0.504 | 0.799 | 1.05 | 0.848 | 0.978 | 1.17 | 1.1
N fixed | 0.551 | 0.695 | 0.918 | 1.08 | 1.04 | 0.655 | 1.09 | 0.901 | 0.975
P fixed | 0.253 | 0.361 | 0.337 | 0.96 | 0.96 | 1.57 | 1.08 | 0.889 | 1.03
Q fixed | 1.33 | 0.965 | 0.88 | 1.07 | 0.983 | 1.06 | 0.893 | 0.809 | 0.847
R fixed | 1.04 | 3.13 | 4.55 | 1.91 | 1.14 | 0.821 | 1.04 | 1.08 | 1.18
V fixed | 1.72 | 0.776 | 0.537 | 0.665 | 0.567 | 0.833 | 0.848 | 0.876 | 0.993
W fixed | 0.885 | 0.684 | 0.563 | 1.1 | 0.806 | 0.921 | 0.79 | 0.869 | 1.06
Y fixed | 0.989 | 1.49 | 0.581 | 0.762 | 1.06 | 0.918 | 0.886 | 0.939 | 1.02
pThr fixed | 0.777 | 0.601 | 0.648 | 1.05 | 0.619 | 0.91 | 1.27 | 0.982 | 1.29
pTyr fixed | 1.85 | 0.381 | 0.882 | 0.738 | 1 | 2.03 | 1.3 | 0.754 | 1.47

TBK1, construct: Full length, human (from UniProt Q9UHD2)
relative phosphorylation
Conditions | at +1 | at +2 | at +3 | at +4 | at -1 | at -2 | at -3 | at -4 | at -5
A fixed | 0.37 | 1.01 | 0.9 | 0.857 | 1.09 | 0.967 | 1.04 | 1.04 | 1.06
D fixed | 0.296 | 0.857 | 0.879 | 0.864 | 0.882 | 1.15 | 1.27 | 1.29 | 1.16
E fixed | 0.214 | 0.903 | 0.869 | 0.945 | 0.855 | 1.06 | 1.32 | 1.13 | 1.18
F fixed | 1.85 | 1.22 | 1.31 | 1.23 | 0.885 | 1.33 | 0.781 | 0.789 | 0.923
G fixed | 0.548 | 0.851 | 0.974 | 0.897 | 0.814 | 1.12 | 1.56 | 1.19 | 1.19
H fixed | 0.557 | 1.09 | 1.16 | 1.05 | 1.11 | 1.06 | 1.08 | 1.04 | 1.21
I fixed | 2.31 | 1.23 | 0.75 | 1.12 | 0.853 | 0.589 | 0.68 | 0.789 | 0.771
K fixed | 0.249 | 0.616 | 0.555 | 0.768 | 1.13 | 0.613 | 0.985 | 1.07 | 1.19
L fixed | 3.03 | 1.22 | 1.04 | 1.09 | 1.06 | 0.864 | 0.568 | 0.903 | 0.805
M fixed | 2.85 | 1.27 | 1.1 | 1.14 | 1.29 | 1.16 | 0.928 | 0.998 | 0.8
N fixed | 0.349 | 1.02 | 0.962 | 0.876 | 0.957 | 0.883 | 1.09 | 1.2 | 1.09
P fixed | 0.178 | 0.765 | 1.16 | 1.04 | 1.26 | 1.83 | 1.24 | 1.08 | 0.981
Q fixed | 0.333 | 1.06 | 0.884 | 0.921 | 1.05 | 0.928 | 1.24 | 1.03 | 1.03
R fixed | 0.255 | 0.858 | 0.602 | 0.743 | 1.05 | 0.666 | 1 | 0.997 | 1.12
V fixed | 0.957 | 1.3 | 0.974 | 0.889 | 0.834 | 0.658 | 0.7 | 0.721 | 0.784
W fixed | 1.41 | 0.804 | 1.33 | 1.36 | 0.75 | 0.748 | 0.711 | 0.877 | 0.857
Y fixed | 1.24 | 0.931 | 1.54 | 1.22 | 1.12 | 1.39 | 0.812 | 0.861 | 0.859
pThr fixed | 0.465 | 0.783 | 0.625 | 0.849 | 0.582 | 0.817 | 1.14 | 1.01 | 1.06
pTyr fixed | 0.494 | 0.785 | 0.848 | 0.779 | 1.07 | 1.46 | 1.32 | 1.03 | 1.11
